Source: paper PMC9687869, “Redox Regulation of Signaling Complex between Caveolin-1 and Neuronal Calcium Sensor Recoverin” (Biomolecules, 2022)
Changes are numbered by the printed parent chain. In names and notes the source's numbering stands.

T1: recombinant myristoylated recoverin, reduced monomer (Rec) (UniProt P21457 1-202, N-terminal myristoyl group (myristoylation rate more than 95%))
T1 construct: recoverin, photoreceptor neuronal calcium sensor; also called intact recoverin; wild-type recoverin
T1 sequence (looked up): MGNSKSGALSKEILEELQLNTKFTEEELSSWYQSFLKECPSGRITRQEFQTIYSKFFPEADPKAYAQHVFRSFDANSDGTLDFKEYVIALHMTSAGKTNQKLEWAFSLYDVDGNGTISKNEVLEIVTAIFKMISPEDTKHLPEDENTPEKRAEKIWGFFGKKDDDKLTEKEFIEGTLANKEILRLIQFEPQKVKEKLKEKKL

B1: N-terminal fragment of caveolin-1 M1-R101 with N-terminal His6-tag (Cav) (domain or fragment, UniProt Q03135 1-101, looked up)
chain: MSGGKYVDSEGHLYTVPIREQGNIYKPNNKAMADELSEKQVYDAHTKEIDLVNRDPKHLNDDVVKIDFEDVIAEPEGTHSFDGIWKASFTTFTVTKYWFYR
notes: caveolin-1, N-terminal domain and oligomerization domain, residues M1-R101; Forms homogeneous oligomers in solution by DLS; the number of copies was not measured; It names pET-22b and an N-terminal His6-tag; also called Cav (1-101 aa) fragment; caveolin-1 fragment; source: E. coli BL21 Star (DE3), solubilised in guanidine hydrochloride, dialysed, purified (Ni-NTA)
B2: recoverin C39D mutant (Rec-C39D) (natural protein, UniProt P21457 1-202, looked up)
chain: T1 sequence (looked up) with C39D
modifications: N-terminal myristoyl group (myristoylation rate more than 95%)
notes: recoverin with C39D, which mimics oxidation of cysteine-39 to a sulfenic/sulfinic/sulfonic group; also called thiol oxidation mimicking mutant; oxidized monomer mimic
B3: N-terminally tagged caveolin-1 fragment M1-R101 with Y14E substitution (CavE) (domain or fragment, UniProt Q03135 1-101, looked up)
chain: B1 chain with Y14E
notes: caveolin-1, residues M1-R101 with Y14E, which mimics phosphorylation at Y14; built on Cav; Forms larger oligomeric particles than Cav by DLS; also called caveolin-1 mutant Y14E; source: E. coli BL21 Star (DE3), solubilised in guanidine hydrochloride, dialysed, purified (Ni-NTA)
B4: disulfide dimer of recoverin (dRec) (natural protein)
chain: GNSKSGALSKEILEELQLNTKFTEEELSSWYQSFLKECPSGRITRQEFQTIYSKFFPEADPKAYAQHVFRSFDANSDGTLDFKEYVIALHMTSAGKTNQKLEWAFSLYDVDGNGTISKNEVLEIVTAIFKMISPEDTKHLPEDENTPEKRAEKIWGFFGKKDDDKLTEKEFIEGTLANKEILRLIQFEPQKVKEKLKEKKL
modifications: N-terminal myristoyl group; disulfide between the cysteine-39 residues of the two chains

What was measured:
Conditions in all cases: both partners purified
[1] = biological target: B2; assay: SPR; Cav or CavE immobilised by amine coupling (ProteOn GLH chip); analyte 2.5-30 uM recoverin form; 10 mM HEPES pH 7.4, 150 mM NaCl, 2 mM DTT (none for dRec), 0.05% TWEEN 20, calcium-free (1 mM EDTA in the methods, 2 mM EGTA in Table 2); 25 C; heterogeneous ligand model
[2] = biological target: T1, recombinant myristoylated recoverin, …; assay: as above
[3] = biological target: B4; assay: as above
[4] = biological target: B2; assay: SPR; Cav or CavE immobilised by amine coupling (ProteOn GLH chip); analyte 2.5-30 uM recoverin form; 10 mM HEPES pH 7.4, 150 mM NaCl, 2 mM DTT (none for dRec), 0.05% TWEEN 20, with calcium (1 mM CaCl2 in the methods, 2 mM Ca2+ in Table 2); 25 C; heterogeneous ligand model
[5] = biological target: B1; assay: pull-down; Cav or CavE covalently attached to BrCN-activated Sepharose CL-4B; 50 ug recoverin form; 20 mM Tris-HCl pH 7.5, 100 mM NaCl, 2 mM MgCl2, 2 mM EGTA (calcium-free); 30 min at room temperature; bound protein analysed by SDS-PAGE

Row | Kd [1] [nM] | koff [1] [s⁻¹] | Kd [2] [nM] | koff [2] [s⁻¹] | Kd [3] [nM] | koff [3] [s⁻¹] | Kd [4] [nM] | koff [4] [s⁻¹] | fold increase of the interaction against Rec (pull-down) [5] [fold] | Binder
1 | 140 ± 44 | 0.000117 | 490 ± 160 | 0.000105 | 48.6 ± 1.1 | 2.44e-05 | 376 ± 173 | 0.000186 | – | B1
2 | – | – | – | – | – | – | – | – | 2 to 3 | B2
3 | 329 ± 145 | 0.000172 | 1110 ± 66 | 8.81e-05 | 218 ± 87 | 8.08e-05 | 629 ± 257 | 0.000202 | – | B3
4 | – | – | – | – | – | – | – | – | 2 to 3 | B4
